Experimental data taken from patent US20260265410A1 (UNIVERSITY OF FLORIDA RESEARCH FOUNDATION, published 2026).
Substitutions are numbered along the chain they refer to.

T1: mouse PTPRG ECD (amino acid residues 20-733 of mouse PTPRG) fused to hFc (mouse, UniProt Q05909 20-733)
T1 construct: Produced in-house; also called mPTPRG-ECD; Mouse PTPRG-ECD-hFc; not shown: human Fc (hFc)
T1 sequence: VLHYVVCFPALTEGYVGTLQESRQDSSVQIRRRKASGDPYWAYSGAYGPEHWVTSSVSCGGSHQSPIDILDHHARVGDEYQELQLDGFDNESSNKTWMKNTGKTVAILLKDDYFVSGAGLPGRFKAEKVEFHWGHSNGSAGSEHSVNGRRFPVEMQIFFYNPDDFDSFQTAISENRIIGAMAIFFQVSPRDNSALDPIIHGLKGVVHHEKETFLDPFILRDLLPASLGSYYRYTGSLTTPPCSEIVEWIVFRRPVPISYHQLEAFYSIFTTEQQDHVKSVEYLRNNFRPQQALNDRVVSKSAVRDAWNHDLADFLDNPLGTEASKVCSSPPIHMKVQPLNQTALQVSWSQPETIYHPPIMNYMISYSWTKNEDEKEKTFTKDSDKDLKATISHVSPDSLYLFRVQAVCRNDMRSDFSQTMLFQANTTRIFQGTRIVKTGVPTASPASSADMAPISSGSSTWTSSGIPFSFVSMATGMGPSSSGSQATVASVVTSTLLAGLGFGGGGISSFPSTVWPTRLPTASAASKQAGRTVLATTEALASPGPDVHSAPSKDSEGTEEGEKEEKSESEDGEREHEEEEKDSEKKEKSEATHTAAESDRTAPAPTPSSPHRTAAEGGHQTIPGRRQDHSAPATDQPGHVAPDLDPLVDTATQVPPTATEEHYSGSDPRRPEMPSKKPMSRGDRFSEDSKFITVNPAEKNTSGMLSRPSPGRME

T2: human PTPRG extracellular domain (ECD) (residues 20~736 of human PTPRG) fused to hFc (human, UniProt P23470 20-736)
T2 construct: Produced in-house by transient transfection of Expi293 cells; also called hPTPRG-ECD-hFc; hPTPRG-ECD; not shown: human Fc (hFc)
T2 sequence: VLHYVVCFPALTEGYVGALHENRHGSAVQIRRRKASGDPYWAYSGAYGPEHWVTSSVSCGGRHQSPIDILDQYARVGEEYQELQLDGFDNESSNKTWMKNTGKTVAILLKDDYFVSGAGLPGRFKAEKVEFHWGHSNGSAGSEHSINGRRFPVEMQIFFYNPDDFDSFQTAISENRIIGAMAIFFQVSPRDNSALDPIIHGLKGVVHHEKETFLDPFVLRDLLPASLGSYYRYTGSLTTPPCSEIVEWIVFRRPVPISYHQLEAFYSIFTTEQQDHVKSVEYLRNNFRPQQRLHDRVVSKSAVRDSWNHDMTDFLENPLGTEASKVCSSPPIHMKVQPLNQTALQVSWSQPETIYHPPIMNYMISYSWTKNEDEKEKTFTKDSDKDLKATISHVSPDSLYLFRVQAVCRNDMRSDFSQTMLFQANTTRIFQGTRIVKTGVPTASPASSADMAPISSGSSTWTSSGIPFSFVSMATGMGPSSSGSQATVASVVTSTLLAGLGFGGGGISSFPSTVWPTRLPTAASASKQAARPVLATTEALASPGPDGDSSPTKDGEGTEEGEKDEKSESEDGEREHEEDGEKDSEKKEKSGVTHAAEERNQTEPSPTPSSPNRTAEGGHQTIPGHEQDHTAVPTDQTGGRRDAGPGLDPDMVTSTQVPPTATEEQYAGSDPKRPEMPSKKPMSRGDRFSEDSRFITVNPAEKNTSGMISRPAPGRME

T3: N-terminal domain (NTD) of human PTPRG (amino acid residues 20~448 of human PTPRG) (human, UniProt P23470 20-448)
T3 construct: also called hPTPRG-NTD; human PTPRG NTD
T3 sequence: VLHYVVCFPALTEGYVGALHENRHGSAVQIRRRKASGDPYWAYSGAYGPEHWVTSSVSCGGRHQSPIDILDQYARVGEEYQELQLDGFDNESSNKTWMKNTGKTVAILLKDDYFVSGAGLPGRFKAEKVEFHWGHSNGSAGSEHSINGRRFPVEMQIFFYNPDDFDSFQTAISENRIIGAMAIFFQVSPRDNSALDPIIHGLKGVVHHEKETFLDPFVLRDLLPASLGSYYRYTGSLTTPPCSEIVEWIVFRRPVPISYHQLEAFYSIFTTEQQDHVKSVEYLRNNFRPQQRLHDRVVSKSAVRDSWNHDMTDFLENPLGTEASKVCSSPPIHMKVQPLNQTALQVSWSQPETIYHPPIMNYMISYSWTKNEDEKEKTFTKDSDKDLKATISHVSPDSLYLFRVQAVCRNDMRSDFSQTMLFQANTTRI

T4: human CD105-ECD: amino acid residues Met 1-Gly 586 of human CD105 (Sino bio: Cat: 10149-H02H) (human, UniProt P17813 26-586)
T4 construct: Bought; also called hCD105-ECD-hFc; hCD105-hFc
T4 sequence: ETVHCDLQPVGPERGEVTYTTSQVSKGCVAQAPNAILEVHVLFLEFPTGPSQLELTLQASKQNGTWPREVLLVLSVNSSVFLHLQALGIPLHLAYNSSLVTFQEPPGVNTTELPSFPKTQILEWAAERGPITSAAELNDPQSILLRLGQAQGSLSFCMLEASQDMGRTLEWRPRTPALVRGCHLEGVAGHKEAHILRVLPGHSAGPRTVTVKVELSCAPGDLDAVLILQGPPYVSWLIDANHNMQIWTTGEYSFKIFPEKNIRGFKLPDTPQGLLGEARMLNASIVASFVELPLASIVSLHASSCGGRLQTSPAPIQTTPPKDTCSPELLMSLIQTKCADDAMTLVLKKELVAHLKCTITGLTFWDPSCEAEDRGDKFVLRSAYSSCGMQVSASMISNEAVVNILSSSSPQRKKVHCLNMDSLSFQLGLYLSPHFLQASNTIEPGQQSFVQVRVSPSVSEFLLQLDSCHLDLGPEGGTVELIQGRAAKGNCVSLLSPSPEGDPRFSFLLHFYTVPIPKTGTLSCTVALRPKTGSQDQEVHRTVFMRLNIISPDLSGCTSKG

T5: human Nectin-2 on the cell surface (U937 cells) (human, UniProt Q92692 32-538)
T5 construct: Endogenous Nectin-2 of U937 cells; also called PVRL2; CD112
T5 sequence: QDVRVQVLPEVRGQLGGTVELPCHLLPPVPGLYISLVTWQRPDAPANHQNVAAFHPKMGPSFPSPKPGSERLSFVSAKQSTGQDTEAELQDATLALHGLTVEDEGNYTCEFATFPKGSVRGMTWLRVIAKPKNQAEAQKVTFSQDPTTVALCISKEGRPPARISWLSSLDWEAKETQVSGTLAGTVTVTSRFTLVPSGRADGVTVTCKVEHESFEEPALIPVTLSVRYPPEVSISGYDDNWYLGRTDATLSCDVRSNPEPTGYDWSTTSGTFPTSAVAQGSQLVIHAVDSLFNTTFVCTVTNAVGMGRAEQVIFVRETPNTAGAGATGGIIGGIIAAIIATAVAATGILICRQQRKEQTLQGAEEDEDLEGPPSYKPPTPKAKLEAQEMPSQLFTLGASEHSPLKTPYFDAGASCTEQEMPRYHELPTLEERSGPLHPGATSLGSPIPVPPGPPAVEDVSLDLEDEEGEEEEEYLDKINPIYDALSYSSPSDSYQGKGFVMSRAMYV

T6: human Nectin-2 extracellular domain (amino acid residues 1-360 of human Nectin-2) fused to hFc (human, UniProt Q92692 32-360)
T6 construct: Bought; also called hNectin-2-ECD-hFc; NECTIN2-ECD-hFc; not shown: human Fc (hFc)
T6 sequence: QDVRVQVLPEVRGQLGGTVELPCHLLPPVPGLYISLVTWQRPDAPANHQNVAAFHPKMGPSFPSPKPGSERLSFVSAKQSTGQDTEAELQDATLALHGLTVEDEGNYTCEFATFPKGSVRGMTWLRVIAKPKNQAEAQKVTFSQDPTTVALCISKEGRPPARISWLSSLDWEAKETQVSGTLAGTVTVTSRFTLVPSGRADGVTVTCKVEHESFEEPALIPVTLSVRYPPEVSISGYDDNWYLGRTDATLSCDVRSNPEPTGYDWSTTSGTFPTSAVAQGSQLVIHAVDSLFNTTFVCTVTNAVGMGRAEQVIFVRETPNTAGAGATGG

B1: Fab_484 (Fab, V domains shown)
VH: AQSLEESGGRLVTPGTPLTLTCTASGFSLSSYHMAWVRQAPGKGLEWIGIISSSGSTYYASWAKGRFTISKTSTTVDLKITSPTTEDTATYFCARGFGWGPNLWGPGTLVTVSS
VL: SFVLTQPASVQVNLGQMVSLTCTADTLSRSYASWYQQKPGQAPVLLIYRDTSRPSGVPDRFSGSTSGNTATLTISGAQAGDEADYYCATDDNSGSSYQYVFGGGTQLTVTG
notes: Chimeric rabbit/human Fab; also called N484
B2: Fab_2810 (Fab, V domains shown)
VH: QEQLEESGGRLVTPGTPLTLTCTASGFSLTNYYMTWVRQAPGKGLEWIGTIYAGTGSTWYASWVKGRFTISKTSTTVDLKITSPTTEDTATYFCVRGYLGWSSGIENIWGPGTLVTVSS
VL: B1 VL with M17T, T65S, D90S, N92G, S96T, Y97F, Q98H, Y99F
notes: Chimeric rabbit/human Fab; also called E2810; mAb_2810

Columns and labels:
[1] = target: T1, mouse PTPRG ECD (amino acid residues …); test: ELISA, one condition per Fab and antigen; y axis 0 to 1.8 without name or unit
[2] = target: T2, human PTPRG extracellular domain (ECD) …; test: as above
[3] = target: T3, N-terminal domain (NTD) of human PTPRG …; test: as above
[4] = target: T4, human CD105-ECD: amino acid residues …; test: ELISA, absorbance at 405 nm, one condition per Fab and antigen
[5] = target: T5, human Nectin-2 on the cell surface …; test: flow cytometry on whole U937 cells, screen of the 28 clones (Ctrl row = 0); Nectin-2 is named as the antigen on U937 cells only in the later examples
[6] = target: T5, human Nectin-2 on the cell surface …; test: competition flow cytometry on U937 cells; competitor of 0.5 µg Alexa 647 labelled Fab_2282
[7] = target: T2, human PTPRG extracellular domain (ECD) …; test: ELISA, absorbance at 405 nm, one condition per Fab and antigen
[8] = target: T6, human Nectin-2 extracellular domain …; test: as above

Row | Binder | binding result [1] | binding result [2] | binding result [3] | binding result [4] | flow cytometry binding value (the table prints no name or unit) [5] | binding result [6] | binding result [7] | binding result [8]
1 | B1 | no binding | no binding | no binding | no binding | 94.8 | – | – | –
2 | B2 | – | – | – | – | – | no binding (tested: 5 µg) | no binding | no binding
